The values that follow come from PMC4874776.

The target in test [1] is glycosylated FG domain of Nup98 from Xenopus tropicalis (Nup98-glyco), amino acids 1 to 485, with an N-terminal His14-TEV tag (X. tropicalis). The test is described as follows: spectroscopic ellipsometry; NTF2 and NTF2 W7A mutant sequentially exposed to FG domain films (5-13 pmol/cm^2), equilibrium bound amounts by SE, two to four measurements per FG domain type; native NTF2 on a reg-SSSG film (8.3 pmol/cm^2) as control.

Test [2] addresses reg-FSFG, an artificially designed regular FSFG domain with 16 repetitions of the sequence … and an N-terminal His14-TEV tag. The test is described as above.
The target in test [3] is glycosylated FG domain of Nup98 from Xenopus tropicalis (Nup98-glyco), amino acids 1 to 485, with an N-terminal His14-TEV tag (X. tropicalis). The test is described as follows: spectroscopic ellipsometry + QCM-D; FG domain end-grafted through its His tag (4-11 pmol/cm^2) on His tag capturing QCM-D sensors (NTF2 with Nsp1) or on Ni2+-NTA supported lipid bilayers (Nup98-glyco, reg-FSFG, Impβ with Nsp1); NTR titrated in solution from 0.0025 to 10 uM, equilibrium bound amounts by SE; 10 mM Hepes pH 7.4, 150 mM NaCl, 23 °C; linear fit at cNTR <= 0.05 uM, Hill equation at 0.05-10 uM.

Test [4] deals with reg-FSFG, an artificially designed regular FSFG domain with 16 repetitions of the sequence … and an N-terminal His14-TEV tag. Described as above.

Where only a bound is given, the exact number is not on record here.

As to “W7A mutant of NTF2 (from UniProt P61970 1-127) (receptor)”, the reduction of the equilibrium bound amount against native NTF2 in test [1] and in test [2] was greater than 80% in each case.

For “nuclear transport factor 2 from Homo sapiens (NTF2) (from UniProt P61970 1-127) (receptor)”, the FG motifs in the film per bound NTR at cNTR = 10 uM (FG motifs per bound NTF2 dimer) in test [3] and in test [4] was greater than 10 in each case.
